Results reported in patent US20250268980A1, “AN ANTICANCER THERAPY TARGETING RAS AND OTHER ONCOGENIC SIGNALS BY INHIBITION OF DYNAMIC BLEBBING AND/OR SEPTINS” (THE BOARD OF REGENTS OF THE UNIVERSITY OF TEXAS SYSTEM, priority 2022, published 2025).

How the values were obtained:
[1] = target: SEPTIN9 (human) (UniProt Q9UHD8); test: HaloLink pulldown from MV3 cells, LC-MS/MS
[2] = target: SEPTIN2 (human) (UniProt Q15019); test: HaloLink pulldown from MV3 cells, LC-MS/MS
[3] = target: SEPTIN6 (human) (UniProt Q14141); test: HaloLink pulldown from MV3 cells, LC-MS/MS
[4] = target: SEPTIN7 (human) (UniProt Q16181); test: HaloLink pulldown from MV3 cells, LC-MS/MS
[5] = target: SEPTIN8 (human) (UniProt Q92599); test: HaloLink pulldown from MV3 cells, LC-MS/MS
[6] = target: SEPTIN11 (human) (UniProt Q9NVA2); test: HaloLink pulldown from MV3 cells, LC-MS/MS
[7] = target: SEPTIN10 (human) (UniProt Q9P0V9); test: HaloLink pulldown from MV3 cells, LC-MS/MS
[8] = target: SEPTIN9 (human) (UniProt Q9UHD8); test: HaloLink pulldown from unperturbed A375 cells, LC-MS/MS
[9] = target: SEPTIN2 (human) (UniProt Q15019); test: as above
[10] = target: SEPTIN6 (human) (UniProt Q14141); test: as above
[11] = target: SEPTIN7 (human) (UniProt Q16181); test: as above
[12] = target: SEPTIN8 (human) (UniProt Q92599); test: as above
[13] = target: SEPTIN11 (human) (UniProt Q9NVA2); test: as above
[14] = target: SEPTIN10 (human) (UniProt Q9P0V9); test: as above

Chain of SEPTIN10 (human) (Q9P0V9 whole entry): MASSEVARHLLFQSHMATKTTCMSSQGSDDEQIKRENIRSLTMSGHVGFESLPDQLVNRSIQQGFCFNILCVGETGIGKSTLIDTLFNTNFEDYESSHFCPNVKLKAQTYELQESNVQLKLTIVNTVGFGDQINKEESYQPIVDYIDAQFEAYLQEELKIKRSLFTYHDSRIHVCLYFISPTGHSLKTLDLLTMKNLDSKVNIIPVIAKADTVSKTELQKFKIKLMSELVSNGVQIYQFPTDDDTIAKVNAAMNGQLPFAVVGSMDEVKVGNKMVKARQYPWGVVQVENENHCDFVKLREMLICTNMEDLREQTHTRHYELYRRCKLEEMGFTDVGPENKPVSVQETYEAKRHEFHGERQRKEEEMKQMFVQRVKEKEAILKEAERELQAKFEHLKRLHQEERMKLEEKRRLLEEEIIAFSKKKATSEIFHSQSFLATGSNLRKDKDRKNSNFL
Chain of SEPTIN2 (human) (Q15019 whole entry): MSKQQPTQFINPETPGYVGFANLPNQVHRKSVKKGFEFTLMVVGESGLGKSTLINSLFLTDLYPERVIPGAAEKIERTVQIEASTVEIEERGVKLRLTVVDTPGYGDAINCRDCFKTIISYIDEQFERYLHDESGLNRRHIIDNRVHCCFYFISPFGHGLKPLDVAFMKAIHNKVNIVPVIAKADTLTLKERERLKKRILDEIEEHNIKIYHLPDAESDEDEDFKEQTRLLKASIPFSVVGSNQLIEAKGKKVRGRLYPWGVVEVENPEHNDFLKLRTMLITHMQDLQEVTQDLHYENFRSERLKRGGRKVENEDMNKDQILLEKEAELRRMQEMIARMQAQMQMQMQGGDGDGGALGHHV
Chain of SEPTIN11 (human) (Q9NVA2 2-429 limits assumed): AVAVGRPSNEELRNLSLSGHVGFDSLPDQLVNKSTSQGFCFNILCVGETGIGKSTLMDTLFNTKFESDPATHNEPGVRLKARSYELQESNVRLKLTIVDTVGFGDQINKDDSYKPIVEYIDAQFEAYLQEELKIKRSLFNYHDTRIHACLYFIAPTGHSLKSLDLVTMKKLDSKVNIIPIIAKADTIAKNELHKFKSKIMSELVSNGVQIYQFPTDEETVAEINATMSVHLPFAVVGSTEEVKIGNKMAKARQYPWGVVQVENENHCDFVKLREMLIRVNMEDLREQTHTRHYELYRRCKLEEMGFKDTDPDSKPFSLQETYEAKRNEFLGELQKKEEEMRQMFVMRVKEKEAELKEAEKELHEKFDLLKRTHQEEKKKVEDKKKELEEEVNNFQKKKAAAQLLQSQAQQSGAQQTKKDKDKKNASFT
Chain of SEPTIN7 (human) (Q16181 2-437 limits assumed): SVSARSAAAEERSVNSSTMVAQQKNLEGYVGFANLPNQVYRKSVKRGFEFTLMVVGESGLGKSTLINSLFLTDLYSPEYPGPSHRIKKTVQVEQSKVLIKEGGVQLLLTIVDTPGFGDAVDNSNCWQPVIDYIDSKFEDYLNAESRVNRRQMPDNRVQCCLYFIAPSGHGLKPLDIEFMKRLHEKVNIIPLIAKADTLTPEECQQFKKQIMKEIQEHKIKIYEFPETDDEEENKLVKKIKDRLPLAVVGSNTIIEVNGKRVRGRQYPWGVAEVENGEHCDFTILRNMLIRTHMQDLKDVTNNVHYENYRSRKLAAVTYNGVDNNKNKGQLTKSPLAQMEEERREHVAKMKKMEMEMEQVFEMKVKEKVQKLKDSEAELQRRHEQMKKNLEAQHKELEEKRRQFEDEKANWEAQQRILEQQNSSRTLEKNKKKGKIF
Chain of SEPTIN9 (human) (Q9UHD8 whole entry): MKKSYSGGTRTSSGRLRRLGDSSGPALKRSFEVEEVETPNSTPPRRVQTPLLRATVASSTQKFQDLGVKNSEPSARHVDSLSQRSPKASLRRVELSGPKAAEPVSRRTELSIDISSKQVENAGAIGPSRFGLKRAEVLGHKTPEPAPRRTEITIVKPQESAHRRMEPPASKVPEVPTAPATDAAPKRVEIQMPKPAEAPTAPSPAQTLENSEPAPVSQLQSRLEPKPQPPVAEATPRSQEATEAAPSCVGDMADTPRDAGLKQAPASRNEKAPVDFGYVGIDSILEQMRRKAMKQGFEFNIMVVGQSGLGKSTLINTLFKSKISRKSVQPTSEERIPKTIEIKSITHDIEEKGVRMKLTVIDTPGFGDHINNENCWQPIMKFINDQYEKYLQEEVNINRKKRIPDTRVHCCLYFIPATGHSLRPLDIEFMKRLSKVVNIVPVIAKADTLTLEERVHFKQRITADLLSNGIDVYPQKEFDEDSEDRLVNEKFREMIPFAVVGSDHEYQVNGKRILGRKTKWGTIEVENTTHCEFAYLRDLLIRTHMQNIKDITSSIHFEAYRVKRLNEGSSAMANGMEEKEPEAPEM
Chain of SEPTIN6 (human) (Q14141 2-434 limits assumed): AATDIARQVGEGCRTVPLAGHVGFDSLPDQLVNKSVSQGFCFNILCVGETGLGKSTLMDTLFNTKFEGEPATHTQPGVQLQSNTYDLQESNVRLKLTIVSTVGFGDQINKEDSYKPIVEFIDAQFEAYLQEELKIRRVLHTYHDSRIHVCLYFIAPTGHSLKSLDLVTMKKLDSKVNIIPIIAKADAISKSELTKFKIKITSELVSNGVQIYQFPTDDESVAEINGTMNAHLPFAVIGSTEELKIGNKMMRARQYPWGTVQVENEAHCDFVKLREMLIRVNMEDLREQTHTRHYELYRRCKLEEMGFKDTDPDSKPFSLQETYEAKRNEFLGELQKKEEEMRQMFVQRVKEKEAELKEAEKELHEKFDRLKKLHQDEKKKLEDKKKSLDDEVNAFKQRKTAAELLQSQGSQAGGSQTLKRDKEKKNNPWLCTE
Chain of SEPTIN8 (human) (Q92599 2-483 limits assumed): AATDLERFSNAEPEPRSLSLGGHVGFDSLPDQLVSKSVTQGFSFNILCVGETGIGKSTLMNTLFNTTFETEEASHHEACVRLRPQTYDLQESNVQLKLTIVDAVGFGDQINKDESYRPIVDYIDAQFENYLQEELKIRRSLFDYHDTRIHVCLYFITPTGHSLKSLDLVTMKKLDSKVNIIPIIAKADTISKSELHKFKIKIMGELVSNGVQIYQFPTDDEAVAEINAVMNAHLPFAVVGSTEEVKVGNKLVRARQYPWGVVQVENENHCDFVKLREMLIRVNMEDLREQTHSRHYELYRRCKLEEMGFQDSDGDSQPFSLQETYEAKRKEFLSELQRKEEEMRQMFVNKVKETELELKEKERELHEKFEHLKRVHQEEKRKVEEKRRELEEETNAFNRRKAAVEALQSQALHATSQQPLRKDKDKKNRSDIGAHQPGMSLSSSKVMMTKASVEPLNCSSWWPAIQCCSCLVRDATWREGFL

“mouse SEPT6-HALO (from UniProt Q9R1T4 2-434)” gave a % of total protein abundance [1] of 1.85%, a % of total septin abundance [1] of 23% and a fold change between lysate and pulldown (% of total protein abundance) [1] of 61.7 fold. The fold change between lysate and pulldown (% of total septin abundance) [1] was 1.78 fold, the % of total protein abundance [2] was 2.43% and the % of total septin abundance [2] was 30.1%. It also gave a fold change between lysate and pulldown (% of total protein abundance) [2] of 60.8 fold, a fold change between lysate and pulldown (% of total septin abundance) [2] of 1.5 fold and a % of total protein abundance [3] of 1.03%. For the same substance, the % of total septin abundance [3] was 12.8%, the fold change between lysate and pulldown (% of total protein abundance) [3] was 11.4 fold and the fold change between lysate and pulldown (% of total septin abundance) [3] was -3.2 fold. For the same substance, the % of total protein abundance [4] was 2.41%, the % of total septin abundance [4] was 29.9% and the fold change between lysate and pulldown (% of total protein abundance) [4] was 120 fold. It also gave a fold change between lysate and pulldown (% of total septin abundance) [4] of 3.39 fold, a % of total protein abundance [5] of under 0.01% and a % of total septin abundance [5] of 0.09%. For the same substance, the fold change between lysate and pulldown (% of total septin abundance) [5] was -3.44 fold, the % of total protein abundance [6] was 0.08% and the % of total septin abundance [6] was 0.94%. The % of total protein abundance [7] was 0.28%, the % of total septin abundance [7] was 3.19% and the fold change between lysate and pulldown (% of total protein abundance) [7] was 7 fold. The fold change between lysate and pulldown (% of total septin abundance) [7] was -5.32 fold, the % of total protein abundance [8] was 1.55% and the % of total septin abundance [8] was 22.1%. It also gave a fold change between lysate and pulldown (% of total protein abundance) [8] of 77.5 fold, a fold change between lysate and pulldown (% of total septin abundance) [8] of 1.62 fold and a % of total protein abundance [9] of 1.81%. The % of total septin abundance [9] was 25.7%, the fold change between lysate and pulldown (% of total protein abundance) [9] was 60.3 fold and the fold change between lysate and pulldown (% of total septin abundance) [9] was -1.03 fold. The % of total protein abundance [10] was 1.67%, the % of total septin abundance [10] was 23.8% and the fold change between lysate and pulldown (% of total protein abundance) [10] was 55.7 fold. For the same substance, the fold change between lysate and pulldown (% of total septin abundance) [10] was -1.33 fold, the % of total protein abundance [11] was 1.48% and the % of total septin abundance [11] was 21.1%. The fold change between lysate and pulldown (% of total protein abundance) [11] was 74 fold, the fold change between lysate and pulldown (% of total septin abundance) [11] was 1.35 fold and the % of total protein abundance [12] was under 0.01%. The % of total septin abundance [12] was 0.02%, the % of total protein abundance [13] was under 0.01% and the % of total septin abundance [13] was 0.12%. The fold change between lysate and pulldown (% of total septin abundance) [13] was -44.7 fold, the % of total protein abundance [14] was 0.51% and the % of total septin abundance [14] was 7.23%. For the same substance, the fold change between lysate and pulldown (% of total septin abundance) [14] was 3.77 fold.
